Measured values published in patent publication US20030186841.
pKd: −log10 of the molar value.

Tests used:
[1] = biological target: C7-PBD-VP64 (synthetic/human PR) (UniProt P08046); experiment: cell_activity; details: +RU486
[2] = test system: B3(F2) three-finger protein (synthetic); experiment: EMSA
[3] = biological target: pGTA (Zif268-C7 finger 2 variant) finger 2 helix -2 to 6 = SQSSSLVR in Zif268-C7 (synthetic) (UniProt P08046); experiment: EMSA
[4] = biological target: pGTG (Zif268-C7 finger 2 variant) finger 2 helix -2 to 6 = SRKDSLVR in Zif268-C7 (synthetic) (UniProt P08046); experiment: EMSA; details: [7-9,26-28]
[5] = biological target: pmGGG (Zif268-C7 finger 2 variant) finger 2 helix -2 to 6 = SRSDKLVR in Zif268-C7 (synthetic) (UniProt P08046); experiment: EMSA; details: [7-9,26-28]
[6] = biological target: pmGTG (Zif268-C7 finger 2 variant) finger 2 helix -2 to 6 = SRSDELVR in Zif268-C7 (synthetic) (UniProt P08046); experiment: EMSA; details: [7-9,26-28]
[7] = biological target: C7 (Zif268-C7) (synthetic) (UniProt P08046); experiment: EMSA; details: [none]
[8] = test system: E2C(Sp1) six-finger (synthetic); experiment: EMSA
[9] = test system: E2C(Zif) six-finger (synthetic); experiment: EMSA
[10] = biological target: pGCC (Zif268-C7 finger 2 variant) finger 2 helix -2 to 6 = SDCRDLAR in Zif268-C7 (synthetic) (UniProt P08046); experiment: EMSA; details: [none]
[11] = biological target: pGTC (Zif268-C7 finger 2 variant) finger 2 helix -2 to 6 = SDPGALVR in Zif268-C7 (synthetic) (UniProt P08046); experiment: EMSA; details: [none]
[12] = biological target: pmGAC (Zif268-C7 finger 2 variant) finger 2 helix -2 to 6 = SDPGNLVR in Zif268-C7 (synthetic) (UniProt P08046); experiment: EMSA; details: [none]
E2C-HS1(F2) (synthetic) = experiment: EMSA; details: ELISA binding good (Table 11)
E2C-HS1(Sp1) (synthetic) = experiment: EMSA
E2C-HS1(Zif) (synthetic) = experiment: EMSA
[13] = test system: B3C2(Sp1)-VP64 (synthetic); experiment: cell_activity; details: HeLa luciferase
[14] = test system: B3B(Sp1)-VP64 (synthetic); experiment: cell_activity; details: HeLa luciferase
[15] = biological target: pmGGT (Zif268-C7 finger 2 variant) finger 2 helix -2 to 6 = STSGHLVR in Zif268-C7 (synthetic) (UniProt P08046); experiment: EMSA; details: [7-9,26-28]
[16] = biological target: pmGAG (Zif268-C7 finger 2 variant) finger 2 helix -2 to 6 = SRSDNLVR in Zif268-C7 (synthetic) (UniProt P08046); experiment: EMSA; details: [7-9,26-28]
[17] = biological target: pmGCG (Zif268-C7 finger 2 variant) finger 2 helix -2 to 6 = SRSDDLVR in Zif268-C7 (synthetic) (UniProt P08046); experiment: EMSA
[18] = biological target: pGGA (Zif268-C7 finger 2 variant) finger 2 helix -2 to 6 = SQRAHLER in Zif268-C7 (synthetic) (UniProt P08046); experiment: EMSA; details: [7-9,26-28]
[19] = test system: E2C(Sp1) six-finger, no effector domain (synthetic); experiment: cell_activity; details: approximately; HeLa luciferase, no effector domain
[20] = test system: E2C(Sp1)-ERD six-finger repressor (synthetic); experiment: cell_activity; details: approximately; HeLa luciferase
[21] = test system: E2C-ER//ER-KRAB heterodimer (synthetic); experiment: cell_activity; details: tamoxifen-dependent; partner ratio 1/10
[22] = test system: E2C-ER//ER-VP64 heterodimer (synthetic); experiment: cell_activity; details: tamoxifen-dependent; maximum at optimised partner ratio
[23] = test system: SID-E2C(Sp1) six-finger repressor (synthetic); experiment: cell_activity; details: approximately; HeLa luciferase
E2E-PBD-VP64 (synthetic) = experiment: cell_activity; details: +RU486; basal 18259, control 17209
[24] = biological target: pmGAA (Zif268-C7 finger 2 variant) finger 2 helix -2 to 6 = SQSSNLVR in Zif268-C7 (synthetic) (UniProt P08046); experiment: EMSA; details: [none]
[25] = biological target: pGCA (Zif268-C7 finger 2 variant) finger 2 helix -2 to 6 = SQSGDLRR in Zif268-C7 (synthetic) (UniProt P08046); experiment: EMSA; details: [none]
[26] = test system: E2F-PBD-VP64 heterodimer (synthetic/human PR); experiment: cell_activity; details: basal; 54986 with RU486; pcDNA control 17209
[27] = biological target: VP16-C7-ER (synthetic/mouse ER) (UniProt P19785); experiment: cell_activity; details: 4-OH tamoxifen
[28] = test system: VP16-C7-PR (synthetic/human PR); experiment: cell_activity; details: RU486
E2C-HS2(F2) (synthetic) = experiment: EMSA; details: ELISA binding good (Table 11)
E2C-HS2(Sp1) (synthetic) = experiment: EMSA
E2C-HS2(Zif) (synthetic) = experiment: EMSA
[29] = test system: E2C(F2) six-finger (synthetic); experiment: EMSA
[30] = test system: E2C(Sp1)-VP16 (synthetic); experiment: cell_activity; details: HeLa luciferase
[31] = test system: E2(F2) three-finger protein (synthetic); experiment: EMSA
[32] = biological target: pmGCT (Zif268-C7 finger 2 variant) finger 2 helix -2 to 6 = STSGELVR in Zif268-C7 (synthetic) (UniProt P08046); experiment: EMSA; details: [none]
[33] = test system: C5(F2) three-finger protein (synthetic); experiment: EMSA
[34] = biological target: pGAT (Zif268-C7 finger 2 variant) finger 2 helix -2 to 6 = STSGNLVR in Zif268-C7 (synthetic) (UniProt P08046); experiment: EMSA; details: [none]
[35] = biological target: pmGGC (Zif268-C7 finger 2 variant) finger 2 helix -2 to 6 = SDPGHLVR in Zif268-C7 (synthetic) (UniProt P08046); experiment: EMSA; details: [7-9,26-28]
[36] = biological target: pmGTT (Zif268-C7 finger 2 variant) finger 2 helix -2 to 6 = STSGSLVR in Zif268-C7 (synthetic) (UniProt P08046); experiment: EMSA; details: [none]
[37] = biological target: pGGG (Zif268-C7 finger 2 variant) finger 2 helix -2 to 6 = SRSDHLTR in Zif268-C7 (synthetic) (UniProt P08046); experiment: EMSA; details: [7-9,26-28]

Substance: C7 inverted repeat, 1 bp spacer, TATA reporter
- activity (luciferase units) ([1]; 4342 without): 9530

Substance: GGAGGGGAGG (double strand) [b3]
- pKd [2]: 8.40

Substance: GGACGCCACCGCGGGTTTTCCCGCGGTGGCGTCC [F2 site GTG]
- pKd ([3]; [7-9,26-28]): < 6.00
- pKd [4]: 8.52
- pKd [5]: < 5.85
- pKd [6]: 7.82

Substance: C7 everted repeat, 4 bp spacer, TATA reporter
- activity (luciferase units) ([1]; 6974 without): 8900

Substance: GGACGCCCACGCGGGTTTTCCCGCGTGGGCGTCC [F2 site TGG]
- pKd [7]: 9.30

Substance: C7 direct repeat, 5 bp spacer, TATA reporter
- activity (luciferase units) ([1]; 2597 without): 5460

Substance: GGGGCCGGAGCCGCAGTGA (double strand) [e2c-a]
- pKd [8]: 9.12
- pKd [9]: 8.64

Substance: GGACGCGGCCGCGGGTTTTCCCGCGGCCGCGTCC [F2 site GCC]
- pKd [10]: 7.10
- pKd [11]: < 5.36
- pKd [12]: 7.05

Substance: C7 everted repeat, 3 bp spacer, TATA reporter
- activity (luciferase units) ([1]; 9670 without): 21500

Substance: GGGGCCGGAG (double strand) [e2c-hs1]
- pKd (E2C-HS1(F2) (synthetic)): 7.35
- pKd (E2C-HS1(Sp1) (synthetic)): 7.46
- pKd (E2C-HS1(Zif) (synthetic)): 7.15

Substance: GGAGGGGACGCGGTGGGT (double strand) [integrin beta3 promoter reporter, b3c2 site]
- activity (fold activation) [13]: 22

Substance: GCCTGAGAGGGAGCGGTG (double strand) [integrin beta3 promoter reporter, b3b site]
- activity (fold activation) [14]: 12

Substance: GGACGCACCCGCGGGTTTTCCCGCGGGTGCGTCC [F2 site GGT]
- pKd [15]: 7.82

Substance: GGACGCCTCCGCGGGTTTTCCCGCGGAGGCGTCC [F2 site GAG]
- pKd [16]: 9.00
- pKd ([17]; [7-9,26-28]): 8.22
- pKd [6]: 7.52

Substance: GGACGCGTCCGCGGGTTTTCCCGCGGACGCGTCC [F2 site GAC]
- pKd [12]: 8.52

Substance: C7 direct repeat, 1 bp spacer, TATA reporter
- activity (luciferase units) ([1]; 3383 without): 8200

Substance: GGACGCTCCCGCGGGTTTTCCCGCGGGAGCGTCC [F2 site GGA]
- pKd [18]: 8.52

Substance: C7 inverted repeat, 5 bp spacer, TATA reporter
- activity (luciferase units) ([1]; 4704 without): 12400

Substance: GGGGCCGGAGCCGCAGTG (double strand) [E2C site in erbB-2 promoter reporter]
- activity [19]: 30 % repression
- activity [20]: 50 % repression
- activity (fold repression) [21]: 2.9
- activity (fold activation) [22]: 5.3
- activity [23]: 80 % repression

Substance: C7 inverted repeat, 4 bp spacer, TATA reporter
- activity (luciferase units) ([1]; 3502 without): 8860

Substance: GGGGCCGGAAGTCTGAATG (double strand) [e2c-muths2]
- pKd [8]: 7.00
- pKd [9]: 6.70

Substance: C7 everted repeat, 1 bp spacer, TATA reporter
- activity (luciferase units) ([1]; 6029 without): 13600

Substance: GCCGGAGCCATGGGGCCGGAGCC (double strand) [E2E site in erbB-2 promoter reporter]
- activity (luciferase units) (E2E-PBD-VP64 (synthetic)): 15900

Substance: GGACGCTTCCGCGGGTTTTCCCGCGGAAGCGTCC [F2 site GAA]
- pKd [24]: 9.30

Substance: GGACGCTGCCGCGGGTTTTCCCGCGGCAGCGTCC [F2 site GCA]
- pKd [25]: 8.70

Substance: C7 everted repeat, 0 spacer, TATA reporter
- activity (luciferase units) ([1]; 8750 without): 17400

Substance: GAGGAGGGCTGCTTGAGGAAGTA (double strand) [erbB-2 promoter reporter, E2F dimer site]
- activity (luciferase units) [26]: 61400

Substance: C7 direct repeat, 4 bp spacer, TATA reporter
- activity (luciferase units) ([1]; 3966 without): 6940

Substance: C7 inverted repeat, 0 spacer, TATA reporter
- activity (luciferase units) ([1]; 2921 without): 10800

Substance: C7 everted repeat, 5 bp spacer, TATA reporter
- activity (luciferase units) ([1]; 6892 without): 13100

Substance: 10xC7 pGL3prom reporter
- activity (fold induction) [27]: 43
- activity (fold induction) [28]: 26

Substance: GCCGCAGTGG (double strand) [e2c-hs2]
- pKd (E2C-HS2(F2) (synthetic)): 7.15
- pKd (E2C-HS2(Sp1) (synthetic)): 7.60
- pKd (E2C-HS2(Zif) (synthetic)): 7.12

Substance: GGGGCCGGAGCCGCAGTGG (double strand) [e2c-g]
- pKd [29]: 7.60
- pKd [8]: 9.30
- pKd [9]: 8.80

Substance: C7 everted repeat, 2 bp spacer, TATA reporter
- activity (luciferase units) ([1]; 7880 without): 20800

Substance: GGGGCCGGAGCCGCAGTG (double strand) [erbB-2 promoter reporter, E2C site]
- activity (fold activation) [30]: 5

Substance: GGACGCGACCGCGGGTTTTCCCGCGGTCGCGTCC [F2 site GTC]
- pKd [11]: 7.40

Substance: GGGGGCGAGG (double strand) [e2]
- pKd [31]: 8.52

Substance: GGACGCAGCCGCGGGTTTTCCCGCGGCTGCGTCC [F2 site GCT]
- pKd [25]: 8.00
- pKd [32]: 7.19

Substance: GGAGGCGGGG (double strand) [c5]
- pKd [33]: 7.52

Substance: C7 direct repeat, 3 bp spacer, TATA reporter
- activity (luciferase units) ([1]; 3269 without): 5140

Substance: AGTCTGAATGCCGCAGTGG (double strand) [e2c-muths1]
- pKd [8]: 7.19
- pKd [9]: 6.70

Substance: GGACGCATCCGCGGGTTTTCCCGCGGATGCGTCC [F2 site GAT]
- pKd [34]: 8.52

Substance: GGACGCTACCGCGGGTTTTCCCGCGGTAGCGTCC [F2 site GTA]
- pKd ([3]; [none]): 7.60

Substance: C7 inverted repeat, 2 bp spacer, TATA reporter
- activity (luciferase units) ([1]; 6964 without): 19200

Substance: C7 direct repeat, 0 spacer, TATA reporter
- activity (luciferase units) ([1]; 4081 without): 20000

Substance: GGACGCGCCCGCGGGTTTTCCCGCGGGCGCGTCC [F2 site GGC]
- pKd [35]: 7.40
- pKd [15]: < 5.62

Substance: GGACGCAACCGCGGGTTTTCCCGCGGTTGCGTCC [F2 site GTT]
- pKd [36]: 8.30

Substance: C7 direct repeat, 2 bp spacer, TATA reporter
- activity (luciferase units) ([1]; 3417 without): 8170

Substance: C7 inverted repeat, 3 bp spacer, TATA reporter
- activity (luciferase units) ([1]; 7132 without): 12800

Substance: GGACGCCGCCGCGGGTTTTCCCGCGGCGGCGTCC [F2 site GCG]
- pKd ([17]; [none]): 8.05

Substance: GGACGCCCCCGCGGGTTTTCCCGCGGGGGCGTCC [F2 site GGG]
- pKd [37]: 9.40
- pKd [16]: 7.35
- pKd [5]: 8.22
